Data from patent US20230002458A1 (ALPHABETA, published 2023).
Numbering of substitutions follows the chain as printed. Numbers in names are those of the source. Values belong to the binder of their own block, whether it stands above or below them.

Legend:
[1] = target: T1, rh wt Bri2 BRICHOS-mCherry oligomers (human, UniProt A5A6H8 113-231 (Pan troglodytes entry)); experiment: cell-based or functional assay
T1 sequence: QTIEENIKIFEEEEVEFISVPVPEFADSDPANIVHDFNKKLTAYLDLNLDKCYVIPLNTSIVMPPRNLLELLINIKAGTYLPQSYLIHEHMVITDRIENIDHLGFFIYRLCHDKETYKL

[2] = target: the molecule itself; experiment: size exclusion chromatography, self-association

- release of wt monomers from oligomers after co-incubation [1]: ~2 molar ratio mutant:wt
B1: rh Bri2 BRICHOS R221E monomer (other)
chain: T1 sequence with R109E

B2: rh wt Bri2 BRICHOS (other)
chain: T1 sequence
notes: also called Bri2 BRICHOS [Bri2(113-231)]; wt protein
- binding result [2]: binds
